One may read the IC50 as the concentration that inhibits the measured activity by half. Read a low IC50 as greater potency in that assay.

Experimental findings from patent US20140018290A1 (Novo Nordisk, published 2014) are described below.

The target of test [1] is T1, human Leptin receptor (human, UniProt P48357 22-1165).
T1 sequence (looked up): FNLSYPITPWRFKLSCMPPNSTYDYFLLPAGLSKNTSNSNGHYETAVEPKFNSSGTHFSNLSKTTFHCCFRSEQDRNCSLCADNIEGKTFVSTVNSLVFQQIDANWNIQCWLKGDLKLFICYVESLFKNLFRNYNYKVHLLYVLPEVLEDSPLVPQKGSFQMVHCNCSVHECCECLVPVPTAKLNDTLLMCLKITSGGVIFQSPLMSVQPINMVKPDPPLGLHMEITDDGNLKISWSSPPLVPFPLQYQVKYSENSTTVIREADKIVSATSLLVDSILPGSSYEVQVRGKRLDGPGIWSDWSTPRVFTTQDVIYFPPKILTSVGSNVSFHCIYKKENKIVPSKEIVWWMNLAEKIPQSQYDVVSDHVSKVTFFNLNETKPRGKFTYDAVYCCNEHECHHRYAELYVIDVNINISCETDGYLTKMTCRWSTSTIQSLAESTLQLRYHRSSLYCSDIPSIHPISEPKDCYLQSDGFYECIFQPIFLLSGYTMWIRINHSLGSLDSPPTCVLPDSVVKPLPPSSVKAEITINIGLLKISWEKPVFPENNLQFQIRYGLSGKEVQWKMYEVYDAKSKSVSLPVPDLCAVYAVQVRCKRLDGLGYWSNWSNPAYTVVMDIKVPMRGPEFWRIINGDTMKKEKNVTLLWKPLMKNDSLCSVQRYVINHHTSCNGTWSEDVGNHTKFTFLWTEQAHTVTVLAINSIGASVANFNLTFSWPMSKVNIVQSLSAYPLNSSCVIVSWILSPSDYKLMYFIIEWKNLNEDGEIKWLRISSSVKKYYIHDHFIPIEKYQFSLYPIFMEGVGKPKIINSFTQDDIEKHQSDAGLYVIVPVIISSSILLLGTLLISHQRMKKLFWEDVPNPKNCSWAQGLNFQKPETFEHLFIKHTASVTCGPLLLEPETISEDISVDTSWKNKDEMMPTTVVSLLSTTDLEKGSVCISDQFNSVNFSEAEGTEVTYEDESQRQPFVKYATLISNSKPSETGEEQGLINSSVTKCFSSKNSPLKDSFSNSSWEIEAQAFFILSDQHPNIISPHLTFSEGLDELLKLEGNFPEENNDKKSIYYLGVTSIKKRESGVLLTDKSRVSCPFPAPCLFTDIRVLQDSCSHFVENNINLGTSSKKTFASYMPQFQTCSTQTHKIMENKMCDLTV
In words: cell-based or functional assay.

The target of test [2] is T1, human Leptin receptor. In words: SPA, displacement of human [125I]-Leptin from human Leptin receptor membranes, 0% HSA added; mean, n=3. The method, then:
(§1) Human Leptin receptor SPA binding assay were performed in white 96-well plates in a total volume of 200 μl per well. Wheat germ agglutinin coated beads containing scintillation liquid were reconstituted in binding buffer (50 mM Hepes, 1 mM CaCl₂, 5 mM MgCl₂, 0.02% Tween 20, 0.25% Ovalbumin pH 7.4) and mixed with membrane preparation to give final concentration of 1 mg beads and 10 μg total protein per well. 50.000 cpm per well of radio ligand human [¹²⁵I]-Leptin was added corresponding to a concentration of approximately […]. Human serum albumin was added to a final concentration of 2% when binding in presence of albumin was investigated. Freeze dried Leptin analogues were dissolved in PBS to 100 μM and serial diluted in binding buffer to give a final assay concentration ranging from 100 nM to […]. The plate was sealed and incubated at +25° C. for 2 hours in a plate shaker set at 400 rpm and thereafter centrifuged at 1500 rpm for 10 minutes prior to reading of luminescence on a microplate scintillation and luminescence counter. Displacement of radioligand was measured as reduction in luminescence and IC₅₀ values were calculated by nonlinear regression analysis of sigmoidal dose-response curves.

In test [3] the target is T1, human Leptin receptor. The test can be described thus: SPA, displacement of human [125I]-Leptin from human Leptin receptor membranes, 2% HSA added; mean, n=3. The method, then: as §1
For test [4], the target named is T1, human Leptin receptor. In words: whole cell binding, displacement of [125I]-hLeptin on HEK293 cells expressing human Leptin receptor; mean, n=4. The method, then: HEK293 cells stably expressing the human Leptin receptor were seeded in poly-D-lysine coated 24 well plates at 200.000 cells per well and cultured for two days in alpha-minimum essential medium (MEM), cell culture media containing 10% heat inactivated fetal calf serum (FCS), 1% penicillin-streptomycin (P/S), 1 mg/ml Zeocin and 1 mg/ml G418 antibiotic at +37° C. in a humidified atmosphere with 5% CO₂. Prior to the experiment, cells were rinsed in pure MEM medium, followed by incubation in Leptin analogues at 10,3,1,0.3,0.1,0.03 and 0.01 nM concentrations for 45 minutes in MEM containing 0.005% polysorbate 20 and 0.1% ovalbumin and [¹²⁵I]-hLeptin 100000 cpm. The cells were washed three times in ice cold MEM and were lysed in lysis buffer containing 1.0% nonidet P-40, 0.5% triton X-100 (C₁₄H₂₂O(C₂H₄O)ₙ) and 1M sodium hydroxide. Samples are transferred to plastic
In general terms: Loss of bound radioactivity is the signal in a displacement assay; it reports binding, not function.

B1: Compound C (protracted rat Leptin: rat Leptin alkylated with compound 2 at the N-terminal amino group) (ligand)
chain: VPIHKVQDDTKTLIKTIVTRINDISHTQSVSARQRVTGLDFIPGLHPILSLSKMDQTLAVYQQILTSLPSQNVLQIAHDLENLRDLLHLLAFSKSCSLPQTRGLQKPESLDGVLEASLYSTEVVALSRLQGSLQDILQQLDLSPEC
modifications: N-terminal amino group alkylated with compound 2 (protractor group: C18 diacid (17-carboxyheptadecanoyl)-gamma-Glu-OEG-OEG-4-formylbenzylamide, attached by reductive alkylation)
notes: also called protracted rLeptin
Take B1: in the test with human Leptin receptor [1], the “Luciferase assay, Mean EC50 nM, 0% HSA added” value stood at 0.24 nM and the “Luciferase assay, Mean IC50 nM, 0.7% HSA added” value came out at 0.42 nM. The IC50 with human Leptin receptor [2] was 380 pM. Besides, the 50% inhibitory concentration (IC50) with human Leptin receptor [3] was 5930 pM.

B2: Rat Leptin (ligand)
chain: VPIHKVQDDTKTLIKTIVTRINDISHTQSVSARQRVTGLDFIPGLHPILSLSKMDQTLAVYQQILTSLPSQNVLQIAHDLENLRDLLHLLAFSKSCSLPQTRGLQKPESLDGVLEASLYSTEVVALSRLQGSLQDILQQLDLSPEC
notes: also called rLeptin; wt rat Leptin
Take B2: the “Luciferase assay, Mean EC50 nM, 0% HSA added” value with human Leptin receptor [1] was 0.41 nM. Also, the “Luciferase assay, Mean IC50 nM, 0.7% HSA added” value in the test with human Leptin receptor [1] stood at 0.52 nM. In addition, the IC50 was 490 pM with human Leptin receptor [2], 880 pM in the test with human Leptin receptor [3] and 1010 pM with human Leptin receptor [4].

B3: Compound A (protracted rat Leptin: rat Leptin alkylated with compound 1 at the N-terminal amino group) (ligand)
chain: VPIHKVQDDTKTLIKTIVTRINDISHTQSVSARQRVTGLDFIPGLHPILSLSKMDQTLAVYQQILTSLPSQNVLQIAHDLENLRDLLHLLAFSKSCSLPQTRGLQKPESLDGVLEASLYSTEVVALSRLQGSLQDILQQLDLSPEC
modifications: N-terminal amino group alkylated with compound 1 (protractor group with 16-(tetrazol-5-yl)hexadecanoylsulfamoyl-butyryl, two Glu, OEG, Gly and an aldehyde-derived anchor)
notes: Mw 17190 g/mol
As for B3, the “Luciferase assay, Mean EC50 nM, 0% HSA added” value with human Leptin receptor [1] is 1.57 nM. Moreover, in the test with human Leptin receptor [1], the “Luciferase assay, Mean IC50 nM, 0.7% HSA added” value was determined as 1.92 nM. Moreover, the 50% inhibitory concentration (IC50) with human Leptin receptor [2] worked out at 1900 pM; in the test with human Leptin receptor [3], 37100 pM; with human Leptin receptor [4], 1760 pM.
